Reference: patent publication US20090169562A1 (CRUCELL HOLLAND B V, published 2009)

How the values were obtained:
[1] = target: T1, bovine serum albumin (BSA) (bovine, UniProt P02769 25-607); assay: phage ELISA, BSA coated
T1 construct: Control antigen coated at 1% in PBS (pH 7.4); also called negative control antigen
Experimental: (§1) Selected single-chain phage antibodies that were obtained in the screens described above were validated in ELISA for specific enterococcal binding activity, i.e. binding to one or more enterococcal strains prepared as described supra. 2.5×10⁸ bacteria were coated overnight at 4° C. to Maxisorp™ ELISA plates in 50 μl 50 mM carbonate buffer, pH 9.6. As negative controls, the complex antigens 2% ELK and 1% BSA both in PBS (pH 7.4) were coated. Wells were washed in PBS containing 0.1% (v/v) Tween-20 and blocked with 300 μl PBS containing 2% ELK for at least 1 hour at room temperature. The selected single-chain phage antibodies were incubated for 15 minutes in an equal volume of PBS containing 2% ELK to obtain blocked phage antibodies. The plates were emptied and the blocked single-chain phage antibodies were added to the wells. Incubation was allowed to proceed for one hour at room temperature, the plates were washed in PBS containing 0.1% (v/v) Tween-20 and bound phage antibodies were detected using an anti-M13 antibody conjugated to peroxidase. Absorbance at 492 nm was measured using a spectrophotometer. As a control, the procedure was performed simultaneously without single-chain phage antibody and with a negative control single-chain phage antibody directed against West Nile virus envelope protein (SC04-374).

[2] = target: T1, bovine serum albumin (BSA); assay: phage ELISA, 1% BSA coated, anti-M13-HRP detection
Experimental: as §1

T1 sequence (P02769 25-607 limits assumed): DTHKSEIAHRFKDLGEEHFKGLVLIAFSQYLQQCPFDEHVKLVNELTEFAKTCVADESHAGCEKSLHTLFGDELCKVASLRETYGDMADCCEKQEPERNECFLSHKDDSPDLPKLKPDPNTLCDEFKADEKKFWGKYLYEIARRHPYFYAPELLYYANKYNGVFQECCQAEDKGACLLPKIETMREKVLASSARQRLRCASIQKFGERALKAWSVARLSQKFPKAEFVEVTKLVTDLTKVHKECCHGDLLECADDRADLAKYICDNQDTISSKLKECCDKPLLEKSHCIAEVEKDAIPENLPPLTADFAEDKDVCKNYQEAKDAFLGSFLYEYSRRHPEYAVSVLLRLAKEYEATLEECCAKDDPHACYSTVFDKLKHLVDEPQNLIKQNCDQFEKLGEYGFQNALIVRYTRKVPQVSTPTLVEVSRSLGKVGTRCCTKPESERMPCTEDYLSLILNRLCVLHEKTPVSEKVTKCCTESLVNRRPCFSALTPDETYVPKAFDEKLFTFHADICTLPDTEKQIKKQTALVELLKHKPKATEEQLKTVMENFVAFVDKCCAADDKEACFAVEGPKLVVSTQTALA

Row | Binder | binding result [1] | OD492 nm [2]
1 | SC06-016 (scFv, Vl 135-241); also called single-chain phage antibody SC06-016) scFv: QVQLVQSGPEVKKPGASVTVSCKASGYSFSSYGISWVRQAPGQGLEWMGRIIPVGGNTLYSQMFQGRVTMTSDTSTSTVYLELSSLRSEDTAVYFCARDGGRWQFDYWGQGTLVTVSSGTGGSGGTGSGTGGSTDIQLTQSPSSVSASVGDRVTITCRASQGISNWLAWYQQKPGKAPELLIYAASSLQSGVPPRFSGSASGTDFTLTISSLQPEDFATYYCQQSKNFPYTFGQGTKVEIK | no binding | 0.044 OD492 nm
2 | SC05-179 (scFv, Vl 134-244); also called single-chain phage antibody SC05-179) scFv: EVQLVESGGGLVKPGGSLGLSCAASGFFFSDYSMSWIRQAPGKGLEWLSNISGSGHSTKYAESMRGRITISRDNAKKSLSLQLNSLRAEDTAVYFCVRGGGYRMDVWGQGTTVTVSSGTGGSGGTGSGTGGSTQSALTQPRSVPGSPGQSVTISCTGTSSDVGGYNYVSWYQQHPGKAPKLMIYDVSKRPSGVPDRFSGSKSGNTASLTVSGLQAEDEADYYCSSYAGSNNFVVFGGGTKLTVL | no binding | 0.045 OD492 nm
3 | SC05-159 (scFv, Vl 140-249); also called single-chain phage antibody SC05-159) scFv: QVQLVQSGAEVKKPGATVKISCKVSGYTFTDYYMHWVQQAPGKGLEWMGLVDPEDGETIYAEKFQGRVTITADTSTDTAYMELSSLRSDDTAVYYCARAEVMTTINNWYFDLWGRGTLVTVSSGTGGSGGTGSGTGGSTSYVLTQPPSASGTPGQRVTISCSGSSSNIGSNNVSWYQQLPGTAPKLLIYSNNQRPSGVPDRFSGSKSGTSASLAISGLQSEDEADYYCAAWDDSLNGWVFGGGTKLTVL | no binding | 0.06 OD492 nm
4 | SC05-187 (scFv, Vl 138-246); also called single-chain phage antibody SC05-187) scFv: EVQLVQSGAEVKKPGESLKISCKGSGYSFTKYWIGWVRQMPGKGLEWMGIIYPGDSDTRYSPSFQGQVTISADKSISTAYLQWSSLKASDTAMYYCARGSGIATGNSFDSWGQGTLVTVSSGTGGSGGTGSGTGGSTQTVVTQEPSLTVSPGGTVTLTCASSTGAVTSGYYPNWFQQKPGQAPRALIYSTSKKHSWTPARFSGSLLGGRAALTLSGAQPEDEADYYCLLSYGGARVFGGGTKLTVL | no binding | 0.055 OD492 nm
5 | SC06-432 (scFv, Vl 137-246); also called single-chain phage antibody SC06-432) scFv: QLQLQESGPGLVKPSQTLSLTCTVSGGSISSGGYYWSWIRQHPGKGLEWIGYIYYSGSTYYNPSLKSRVTISVDTSKNQFSLKLSSVTAADTAVYYCARERILDRMNDYWGQGTLVTVSSGTGGSGGTGSGTGGSTQSVVTQPPSVSGAPGQRVTISCTGSSSNIGAGYDVHWYQQLPGTAPKLLIYGNSNRPSGVPDRFSGSKSGTSASLAITGLQAEDEADYYCQSSDSSLNILFGGGTKLTVL | no binding | 0.059 OD492 nm
6 | SC06-415 (scFv, Vl 133-242); also called single-chain phage antibody SC06-415) scFv: EVQLVESGGGLVQPGRSLRLSCAASGFTFDDYAMHWVRQAPGKGLEWVSGISWNSGSIGYADSVKGRFTISRDNAKNSLYLQMNSLRAEDSAVYYCARGGQRFDFWGQGTLVTVSSGTGGSGGTGSGTGGSTQSALTQPPSASGSPGQSVTISCTGTSSDVGGYNYVSWYQQLPGKAPKLLIYDVNNRPSGVSNRFSGSKSGNTASLTISGLQAEDEAEYYCGSSVGSRLRIFGGGTKLTVL | no binding | 0.044 OD492 nm
7 | SC06-429 (scFv, Vl 138-249); also called single-chain phage antibody SC06-429) scFv: QVQLVQSGAEVKNPGESLKISCKGSGYTFTSYWIGWVRQMPGKGLEWMGSIYPGDSDTRYSPSFQGQVTISVDKSISTAYLQWSSLKASDTAMYYCARQYRAGSTTRFDPWGQGTLVTVSSGTGGSGGTGSGTGGSTDVVMTQSPLSLPVTPGEPASISCRSSQSLRHRNGNNYLDWYLQKPGQSPQLLIYLGSNRASGVPDRFSGSGSGTDFTLKISRVEAEDVGIYYCMQALQTPLTFGGGTKVEIK | no binding | 0.068 OD492 nm
